Laboratory results as given in PMC4663108 (Journal of molecular biology, 2015).

Biological target: DnaK D45C-biotin (E. coli, UniProt P0A6Y8 1-638, D45C, biotin (labeled with a 20-fold excess of Maleimide-PEG11-Biotin))
Assay: pull-down

B1: CbpA (natural protein, E. coli, UniProt P36659 1-306, looked up)
chain: MELKDYYAIMGVKPTDDLKTIKTAYRRLARKYHPDVSKEPDAEARFKEVAEAWEVLSDEQRRAEYDQMWQHRNDPQFNRQFHHGDGQSFNAEDFDDIFSSIFGQHARQSRQRPATRGHDIEIEVAVFLEETLTEHKRTISYNLPVYNAFGMIEQEIPKTLNVKIPAGVGNGQRIRLKGQGTPGENGGPNGDLWLVIHIAPHPLFDIVGQDLEIVVPVSPWEAALGAKVTVPTLKESILLTIPPGSQAGQRLRVKGKGLVSKKQTGDLYAVLKIVMPPKPDENTAALWQQLADAQSSFDPRKDWGKA
B1: binds.
